The values below come from patent US20240368668A1, “SUBSTRATES AND BIOMARKERS OF ADAMTS7” (The Broad Institute, Inc., priority 2021, published 2024).

Square brackets hold non-standard residues; d marks the D form. Ends that are not written are not given here.

For the assay, the target named is T1, mouse ADAMTS7 (Mus musculus, UniProt Q68SA9).
T1 construct: Full-length mouse Adamts7 1-1857 (Uniprot Q68SA9, WT or E373Q catalytic mutant); expressed in transfected cells; host or cells: Human Coronary Artery Smooth Muscle Cells (HCA-SMC, Lonza), adenovirus 50 MOI
T1 sequence (Q68SA9 221-1657): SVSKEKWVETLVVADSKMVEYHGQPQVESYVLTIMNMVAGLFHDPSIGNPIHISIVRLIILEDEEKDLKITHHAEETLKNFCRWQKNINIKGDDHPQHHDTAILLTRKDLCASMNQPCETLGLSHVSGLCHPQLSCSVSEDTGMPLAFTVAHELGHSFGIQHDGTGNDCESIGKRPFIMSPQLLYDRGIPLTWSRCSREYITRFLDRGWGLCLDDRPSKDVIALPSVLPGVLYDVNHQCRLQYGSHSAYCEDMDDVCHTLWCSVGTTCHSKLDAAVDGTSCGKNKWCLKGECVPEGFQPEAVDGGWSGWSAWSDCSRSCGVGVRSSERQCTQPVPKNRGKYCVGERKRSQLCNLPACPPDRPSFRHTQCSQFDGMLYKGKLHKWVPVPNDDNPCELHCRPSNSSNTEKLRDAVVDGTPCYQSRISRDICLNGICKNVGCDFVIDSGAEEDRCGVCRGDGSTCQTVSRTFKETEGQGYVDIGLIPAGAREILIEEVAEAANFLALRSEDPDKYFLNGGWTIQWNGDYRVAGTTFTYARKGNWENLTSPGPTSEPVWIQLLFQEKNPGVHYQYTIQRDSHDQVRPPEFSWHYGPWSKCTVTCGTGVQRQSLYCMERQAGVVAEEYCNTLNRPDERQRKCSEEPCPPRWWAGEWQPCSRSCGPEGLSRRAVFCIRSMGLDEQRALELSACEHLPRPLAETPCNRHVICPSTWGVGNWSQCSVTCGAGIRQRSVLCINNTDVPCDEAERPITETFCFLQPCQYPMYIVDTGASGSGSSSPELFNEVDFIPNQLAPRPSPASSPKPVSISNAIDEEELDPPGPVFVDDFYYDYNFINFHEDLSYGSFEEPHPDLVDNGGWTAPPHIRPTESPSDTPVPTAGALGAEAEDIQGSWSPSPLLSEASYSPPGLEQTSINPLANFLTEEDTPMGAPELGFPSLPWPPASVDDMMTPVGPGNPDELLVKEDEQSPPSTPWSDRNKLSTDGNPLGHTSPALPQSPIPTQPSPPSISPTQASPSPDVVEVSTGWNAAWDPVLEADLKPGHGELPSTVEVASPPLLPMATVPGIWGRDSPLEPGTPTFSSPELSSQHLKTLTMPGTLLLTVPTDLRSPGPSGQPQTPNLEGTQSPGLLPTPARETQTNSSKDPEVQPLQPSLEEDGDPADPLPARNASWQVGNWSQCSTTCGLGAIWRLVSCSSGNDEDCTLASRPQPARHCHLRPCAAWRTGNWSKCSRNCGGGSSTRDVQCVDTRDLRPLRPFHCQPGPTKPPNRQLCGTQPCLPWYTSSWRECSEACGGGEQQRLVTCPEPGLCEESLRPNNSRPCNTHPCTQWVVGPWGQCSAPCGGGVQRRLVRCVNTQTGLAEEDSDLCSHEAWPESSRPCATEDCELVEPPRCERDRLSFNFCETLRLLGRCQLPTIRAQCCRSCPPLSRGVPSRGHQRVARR
The assay is described as follows: TMT10 TAILS N-terminomics, HUVEC experiment (process replicates, trypsin/AspN digest). The assay is classed as cell-based, human. To be noted: HUVEC TAILS HC; log fold change of N-terminal peptide, Ad-mADAMTS7 WT over Luc. The gist of the method:
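Full-length mouse ADAMTS7 (WT or E373Q mutant, C-terminal 3xFLAG) or luciferase was transduced via adenovirus, 50 MOI, into HCA-SMC (SMC1, SMC2) or HUVEC. SMC1: pooled media, technical triplicates 400 ug; SMC2: process triplicates 300 ug; HUVEC: process triplicates 200 ug, bFGF2 10 ng/ml.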
With “ECM1_108 (QEAVPLQK; listed as Homo sapiens)”, the logFC.mWT.over.Luc worked out at 2.21. The substance “EFEMP1_125_ (VAGPEMQTGR; listed as Homo sapiens)” showed a logFC.mWT.over.Luc of 2.34. As for “ERAP2_718 (ISENLKR; listed as Homo sapiens)”, the figure is 5.05; as for “EWSR1_87 (YSQPVQGYGTGAY; listed as Homo sapiens)”, 1.10; as for “FN1_34 ([code q]QMVQPQSPVAVSQSKPGCY; not fully specified (residue 3); listed as Homo sapiens)”, 1.37. For “FN1_35 ([code q]MVQPQSPVAVSQSKPGCY; not fully specified (residue 2); listed as Homo sapiens)”, the logFC.mWT.over.Luc came out at 2.31. As for “FN1_293 (VYQPQPHPQPPPYGHCVT; listed as Homo sapiens)”, the figure is 0.96.

Consider “FN1_607 (SSSGPVEVFIT; listed as Homo sapiens)”, for which the logFC.mWT.over.Luc is on record as 2.31. As for “FN1_1144 (TPGVEYVYTIQVLR; listed as Homo sapiens)”, the figure is 1.43; as for “FN1_1780 (LQGLRPGSEYTVSVVALH; listed as Homo sapiens)”, 1.80. With “FN1_1805 (LIGTQSTAIPAPT; listed as Homo sapiens)”, the logFC.mWT.over.Luc is 1.47.

With “FN1_2113 (FVTHPGY; listed as Homo sapiens)”, the logFC.mWT.over.Luc turned out to be 1.05.

“FSTL1_290 (LQKHQETA; listed as Homo sapiens)” came in with a logFC.mWT.over.Luc of 2.34. As for “LOX_125 (FQAGYSTSR; listed as Homo sapiens)”, the figure is 3.82.
